# Results reported in paper PMC7698748.
# B1: soluble recombinant human DPP4 (residues 29-766), His6-tagged, P27487 29-766 (enzyme)
# chain: NKGTDDATADSRKTYTLTDYLKNTYRLKLYSLRWISDHEYLYKQENNILVFNAEYGNSSVFLENSTFDEFGHSINDYSISPDGQFILLEYNYVKQWRHSYTASYDIYDLNKRQLITEERIPNNTQWVTWSPVGHKLAYVWNNDIYVKIEPNLPSYRITWTGKEDIIYNGITDWVYEEEVFSAYSALWWSPNGTFLAYAQFNDTEVPLIEYSFYSDESLQYPKTVRVPYPKAGAVNPTVKFFVVNTDSLSSVTNATSIQITAPASMLIGDHYLCDVTWATQERISLQWLRRIQNYSVMDICDYDESSGRWNCLVARQHIEMSTTGWVGRFRPSEPHFTLDGNSFYKIISNEEGYRHICYFQIDKKDCTFITKGTWEVIGIEALTSDYLYYISNEYKGMPGGRNLYKIQLSDYTKVTCLSCELNPERCQYYSVSFSKEAKYYQLRCSGPGLPLYTLHSSVNDKGLRVLEDNSALDKMLQNVQMPSKKLDFIILNETKFWYQMILPPHFDKSKKYPLLLDVYAGPCSQKADTVFRLNWATYLASTENIIVASFDGRGSGYQGDKIMHAINRRLGTFEVEDQIEAARQFSKMGFVDNKRIAIWGWSYGGYVTSMVLGSGSGVFKCGIAVAPVSRWEYYDSVYTERYMGLPTPEDNLDHYRNSTVMSRAENFKQVEYLLIHGTADDNVHFQQSAQISKALVDVGVDFQAMWYTDEDHGIASSTAHQHIYTHMSHFIKQCFSLP
# Target: soluble trimeric SARS-CoV-2 spike protein (residues 1-1208) (SARS-CoV-2), P0DTC2
# Assay: SPR
# Conditions: remark: other sources report otherwise
binder,measurement,value
B1,Kd,> 10 µM
